From patent publication US20250250355A1 (BIOSION, published 2025)
Like-named read-outs stand apart in the source and are kept apart here.

Columns and labels:
[1] = biological target: T1, full length human SIRPα on cell membranes (HEK293-SIRPα cells; 293F-SIRPα cells) (human, UniProt P78324 31-504); experiment: cell based binding FACS on HEK293-SIRPα cells, MFI
T1 construct: whole, on cells; also called cell surface human SIRPα; cell surface SIRPα

[2] = biological target: T2, full length human SIRPβ on cell membranes (HEK293-SIRPβ cells; 293F cells expressing human SIRPβ) (human, UniProt O00241 30-398); experiment: cell based binding FACS on HEK293-SIRPβ cells, MFI
T2 construct: whole, on cells; also called cell surface human SIRPβ

[3] = biological target: T3, human SIRPα-V8-his protein (human, UniProt P78324 31-370, limits assumed); experiment: indirect ELISA on coated human SIRPα-V8-his, OD(450-630); curve not visible in the scan
[4] = biological target: T4, cynomolgus SIRPα-his protein (cynomolgus); experiment: indirect ELISA on coated cynomolgus SIRPα-his, OD(450-630); curve not visible in the scan
T4 construct: also called Cyno SIRPα-his; monkey SIRPα
T4 chain: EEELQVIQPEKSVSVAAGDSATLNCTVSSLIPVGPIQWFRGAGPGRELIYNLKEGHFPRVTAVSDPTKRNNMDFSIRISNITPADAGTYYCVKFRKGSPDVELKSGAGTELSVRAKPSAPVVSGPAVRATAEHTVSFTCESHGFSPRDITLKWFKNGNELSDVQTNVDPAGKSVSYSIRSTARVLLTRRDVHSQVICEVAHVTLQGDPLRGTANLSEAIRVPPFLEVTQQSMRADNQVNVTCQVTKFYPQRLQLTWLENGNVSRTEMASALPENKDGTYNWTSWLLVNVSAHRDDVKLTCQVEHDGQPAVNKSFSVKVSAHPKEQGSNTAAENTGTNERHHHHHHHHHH

[5] = biological target: T4, cynomolgus SIRPα-his protein; experiment: as above
[6] = biological target: human SIRPα-isoform 2-his protein (human); experiment: indirect ELISA on coated human SIRPα-isoform 2-his, OD(450-630); curve not visible in the scan
[7] = biological target: human SIRPα-isoform 2-his protein (human); experiment: as above; remark: listed apart in the source
[8] = biological target: T1, full length human SIRPα on cell …; experiment: cell based binding FACS on 293F cells expressing human SIRPα, MFI; curve not visible in the scan
[9] = biological target: T1, full length human SIRPα on cell …; experiment: as above; remark: listed apart in the source
[10] = biological target: T2, full length human SIRPβ on cell …; experiment: cell based binding FACS on 293F cells expressing human SIRPβ, MFI; curve not visible in the scan
[11] = biological target: T2, full length human SIRPβ on cell …; experiment: as above; remark: listed apart in the source
[12] = biological target: T1, full length human SIRPα on cell …; experiment: cell based blocking FACS on 293F-SIRPα cells; blocked ligand: biotin-labeled human CD47-Fc, MFI
[13] = biological target: T5, human SIRPα-his protein (human, UniProt P78324 31-370); experiment: SPR (Biacore T200); antibody captured on Protein A chip, human SIRPα-his flowed from 200 nM; 1:1 Langmuir fit
[14] = biological target: human SIRPβ-his protein (human, UniProt O00241 30-371); experiment: SPR (Biacore T200); antibody captured on Protein A chip, human SIRPβ-his flowed from 200 nM; 1:1 Langmuir fit
[15] = biological target: T3, human SIRPα-V8-his protein; experiment: indirect ELISA on coated human SIRPα-V8-his, OD(450-630); curve flat at the baseline (see non_binding)
[16] = biological target: human SIRPα-isoform 2-his protein (human); experiment: indirect ELISA on coated human SIRPα-isoform 2-his, OD(450-630); curve flat at the baseline (see non_binding)
[17] = biological target: T1, full length human SIRPα on cell …; experiment: cell based blocking FACS on 293F-SIRPα cells; blocked ligand: human CD47 protein (CD47-Fc), MFI; curve not visible in the scan
[18] = biological target: T1, full length human SIRPα on cell …; experiment: as above; remark: listed apart in the source
[19] = biological target: T5, human SIRPα-his protein; experiment: competitive ELISA on coated human SIRPα-his; blocked ligand: biotin-labeled human CD47-his, OD(450-630); curve not assignable in the scan
[20] = biological target: T6, recombinant human SIRPα-Fc protein (human, biotin-labeled (sites not given)); experiment: capture ELISA, antibody captured on anti-mouse IgG F(ab')2, biotin-labeled human SIRPα-Fc in solution, OD(450-630); curve not visible in the scan
T6 construct: also called biotin-labeled human SIRPα-Fc protein

[21] = biological target: T7, human SIRPα protein (soluble, used on 293F-CD47 cells) (human, UniProt P78324 31-370, limits assumed); experiment: cell based blocking FACS on 293F-CD47 cells; soluble human SIRPα protein blocked from binding cell surface human CD47, MFI; curve not visible in the scan
[22] = biological target: T7, human SIRPα protein (soluble, used on …); experiment: as above; remark: listed apart in the source

Sequence of human SIRPα-isoform 2-his protein (human) (chain, as listed by the source limits assumed): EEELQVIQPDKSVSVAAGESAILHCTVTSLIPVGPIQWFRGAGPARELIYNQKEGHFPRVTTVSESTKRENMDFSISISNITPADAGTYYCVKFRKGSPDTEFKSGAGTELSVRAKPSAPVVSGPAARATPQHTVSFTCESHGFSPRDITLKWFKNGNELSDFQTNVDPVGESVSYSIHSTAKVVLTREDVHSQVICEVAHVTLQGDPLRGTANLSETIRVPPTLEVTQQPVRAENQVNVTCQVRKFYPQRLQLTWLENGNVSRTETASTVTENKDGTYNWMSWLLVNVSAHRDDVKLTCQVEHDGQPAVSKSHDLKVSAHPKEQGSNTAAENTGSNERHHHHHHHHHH
T2 sequence (O00241 30-398): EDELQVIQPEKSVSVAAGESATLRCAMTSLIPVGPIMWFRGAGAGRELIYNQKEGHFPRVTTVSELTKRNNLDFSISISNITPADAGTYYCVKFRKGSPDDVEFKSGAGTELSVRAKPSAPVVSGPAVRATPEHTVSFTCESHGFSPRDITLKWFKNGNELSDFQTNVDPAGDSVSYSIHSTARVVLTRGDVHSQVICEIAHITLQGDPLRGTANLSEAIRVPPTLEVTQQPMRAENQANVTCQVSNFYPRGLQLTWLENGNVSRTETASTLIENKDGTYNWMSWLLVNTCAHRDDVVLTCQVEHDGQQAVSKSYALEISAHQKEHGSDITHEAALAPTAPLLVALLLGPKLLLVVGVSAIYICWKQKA
T5 sequence (P78324 other isoform, or with tags, fused parts or gaps limits assumed): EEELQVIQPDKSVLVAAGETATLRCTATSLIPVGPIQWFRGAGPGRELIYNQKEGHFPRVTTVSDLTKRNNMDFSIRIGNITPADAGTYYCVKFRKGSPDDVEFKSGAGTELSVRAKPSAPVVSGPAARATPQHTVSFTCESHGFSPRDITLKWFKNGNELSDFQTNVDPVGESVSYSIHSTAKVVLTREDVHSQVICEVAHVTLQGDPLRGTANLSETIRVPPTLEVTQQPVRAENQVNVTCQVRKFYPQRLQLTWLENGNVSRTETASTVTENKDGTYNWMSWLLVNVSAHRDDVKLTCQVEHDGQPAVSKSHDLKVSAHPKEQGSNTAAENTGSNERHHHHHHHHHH
T1 sequence (P78324 31-504): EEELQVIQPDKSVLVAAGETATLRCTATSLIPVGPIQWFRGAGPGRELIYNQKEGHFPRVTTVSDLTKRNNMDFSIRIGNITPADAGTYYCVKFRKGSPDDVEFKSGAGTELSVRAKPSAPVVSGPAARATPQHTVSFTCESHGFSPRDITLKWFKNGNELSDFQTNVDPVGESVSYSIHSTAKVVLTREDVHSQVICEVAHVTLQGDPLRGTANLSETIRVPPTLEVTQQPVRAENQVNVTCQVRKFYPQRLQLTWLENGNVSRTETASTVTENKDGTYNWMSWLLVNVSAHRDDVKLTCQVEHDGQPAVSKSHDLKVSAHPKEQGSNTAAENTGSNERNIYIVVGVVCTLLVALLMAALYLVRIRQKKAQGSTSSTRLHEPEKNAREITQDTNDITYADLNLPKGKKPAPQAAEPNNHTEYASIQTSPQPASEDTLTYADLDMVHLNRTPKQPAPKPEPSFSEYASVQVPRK
Sequence of human SIRPβ-his protein (O00241 other isoform, or with tags, fused parts or gaps limits assumed): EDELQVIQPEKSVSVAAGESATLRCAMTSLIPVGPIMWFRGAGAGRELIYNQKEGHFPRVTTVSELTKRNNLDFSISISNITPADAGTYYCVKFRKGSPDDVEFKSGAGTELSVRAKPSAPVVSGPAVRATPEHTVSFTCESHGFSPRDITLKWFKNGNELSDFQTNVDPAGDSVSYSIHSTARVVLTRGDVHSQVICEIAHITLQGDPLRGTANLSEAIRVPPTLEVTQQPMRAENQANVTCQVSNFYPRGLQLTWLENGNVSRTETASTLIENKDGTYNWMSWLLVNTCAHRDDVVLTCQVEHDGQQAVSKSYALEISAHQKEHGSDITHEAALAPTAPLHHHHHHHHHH
T7 sequence (P78324 31-370 limits assumed): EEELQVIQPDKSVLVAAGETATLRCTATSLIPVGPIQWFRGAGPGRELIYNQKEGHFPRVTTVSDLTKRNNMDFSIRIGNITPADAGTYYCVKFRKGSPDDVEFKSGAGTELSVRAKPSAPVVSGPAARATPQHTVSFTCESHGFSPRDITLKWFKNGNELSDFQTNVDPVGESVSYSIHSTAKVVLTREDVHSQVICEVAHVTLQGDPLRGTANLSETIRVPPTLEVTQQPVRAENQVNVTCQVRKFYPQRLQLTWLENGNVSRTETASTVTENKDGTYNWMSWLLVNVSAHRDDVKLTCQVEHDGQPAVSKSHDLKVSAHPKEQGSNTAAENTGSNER
T3 sequence (P78324 other isoform, or with tags, fused parts or gaps limits assumed): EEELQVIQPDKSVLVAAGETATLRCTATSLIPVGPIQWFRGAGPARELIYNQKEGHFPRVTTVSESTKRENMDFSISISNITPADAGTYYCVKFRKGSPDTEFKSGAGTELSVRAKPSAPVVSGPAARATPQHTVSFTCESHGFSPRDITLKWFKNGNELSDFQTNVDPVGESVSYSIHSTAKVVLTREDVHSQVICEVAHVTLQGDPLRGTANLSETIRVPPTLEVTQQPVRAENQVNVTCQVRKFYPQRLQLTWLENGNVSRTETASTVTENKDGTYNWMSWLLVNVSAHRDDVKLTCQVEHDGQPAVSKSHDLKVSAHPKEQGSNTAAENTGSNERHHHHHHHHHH
T6 sequence (chain, as listed by the source limits assumed): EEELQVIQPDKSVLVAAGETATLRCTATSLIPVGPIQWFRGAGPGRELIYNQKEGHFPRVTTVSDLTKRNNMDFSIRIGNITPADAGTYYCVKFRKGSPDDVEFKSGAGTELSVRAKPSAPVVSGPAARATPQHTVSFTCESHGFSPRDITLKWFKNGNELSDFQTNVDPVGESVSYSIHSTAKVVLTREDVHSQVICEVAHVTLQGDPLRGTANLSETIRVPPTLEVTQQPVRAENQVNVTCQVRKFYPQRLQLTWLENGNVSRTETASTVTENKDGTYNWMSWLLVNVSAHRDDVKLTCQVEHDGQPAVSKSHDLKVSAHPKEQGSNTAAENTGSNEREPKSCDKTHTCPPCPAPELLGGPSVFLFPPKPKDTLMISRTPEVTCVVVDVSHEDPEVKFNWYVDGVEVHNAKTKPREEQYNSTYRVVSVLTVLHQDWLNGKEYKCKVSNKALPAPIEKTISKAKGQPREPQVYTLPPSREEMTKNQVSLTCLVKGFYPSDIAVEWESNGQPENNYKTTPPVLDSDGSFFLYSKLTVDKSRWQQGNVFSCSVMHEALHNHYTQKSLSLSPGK

B1: BI-765063 (antibody, human IgG4 S228P, kappa, V domains shown)
VH: EVQLVQSGAEVKKPGESLRISCKASGYSFTSYWVHWVRQMPGKGLEWMGNIDPSDSDTHYSPSFQGHVTLSVDKSISTAYLQLSSLKASDTAMYYCVRGGTGTLAYFAYWGQGTLVTVSS
VL: DVVMTQSPLSLPVTLGQPASISCRSSQSLVHSYGNTYLYWFQQRPGQSPRLLIYRVSNRFSGVPDRFSGSGSGTDFTLKISRVEAEDVGVYYCFQGTHVPYTFGGGTKVEIKR
notes: also called BM5
EC50 [1]: 0.633 nM | EC50 [2]: 0.509 nM | EC50 [3]: ~167 nM | EC50 [4]: ~7.83 µM | EC50 [5]: ~16.6 nM | EC50 [6]: 15.2 nM | EC50 [7]: ~4 µM | EC50 [8]: 0.585 nM | EC50 [9]: 0.545 nM | EC50 [10]: 0.482 nM | EC50 [11]: 0.46 nM | IC50 [12]: 0.338 nM | Kd [13]: 26.7 nM | koff [13]: 0.00775 s⁻¹ | kon [13]: 290000 M⁻¹ s⁻¹ | Kd [14]: 30.5 nM | koff [14]: 0.00928 s⁻¹ | kon [14]: 304000 M⁻¹ s⁻¹ | EC50 [15]: 12.2 nM | EC50 [16]: ~11 nM | IC50 [17]: 1.9 nM | IC50 [18]: 1.83 nM | IC50 [19]: 3.92 nM | EC50 [20]: 0.249 nM | IC50 [21]: 0.361 nM | IC50 [22]: 0.386 nM
